Molecular target: LITAF (LPS-induced TNF-α factor), full length
Assay: cell-based or functional assay

LITAF (LPS-induced TNF-α factor), full length, sequence (chain, as listed by the source limits assumed): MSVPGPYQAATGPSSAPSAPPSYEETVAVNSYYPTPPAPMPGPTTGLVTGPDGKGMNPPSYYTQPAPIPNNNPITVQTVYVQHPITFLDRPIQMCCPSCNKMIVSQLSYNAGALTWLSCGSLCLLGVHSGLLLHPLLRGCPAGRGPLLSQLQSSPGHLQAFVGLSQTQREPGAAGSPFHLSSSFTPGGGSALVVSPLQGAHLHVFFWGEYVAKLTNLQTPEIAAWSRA

B1: STAT6(B) (Signal transducer and activator of transcription), full length, aa 1-404 (other)
chain: MARRNPSPPLQRLRDWGHHHCPCHPGPGWLSTDGEHPAILCQRPVHSLTGGPNPGSCSAQKSLSQEAQGGGFPEPLQAWAGTGCSDSFLSPTSSLLPAALLSLPVCHPDVTPYFIAVLLLLPHDPCPPFPPPFLPNPRALHGCLFLLTTAEQMGKDGRGYVPATIKMTVERGVWWYGQWVGQGLVVLICRKEGWHQPLVSHMYLLPSSRDQPLPTPELQMPTMVPSYDLGMAPDSSMSMQLGPDMVPQVYPPHSHSIPPYQGLSPEESVNVLSAFQEPHLQMPPSLGQMSLSFDQPHPQGLLPCQPQEHAVSSPDPLLCSDVTTVEDSCLSQPVTAFPQGTWIGEDIFPPLLPPTEQDLTKLLLEGQGESGGGSLGAQPLLQPSHYGQSGISMSHMDLRANPSW
TNF-promoter activity (luciferase), U2OS cells, co-transfection versus LITAF alone: 1.5 fold
TNF-α in supernatants of transfected THP-1 cells (ELISA), versus LITAF alone: 1.8 fold
cytokine antibody array, 'W-10' (probably IL-10), THP-1 cells co-transfected with LITAF and STAT6(B): 10 fold
cytokine antibody array, GRO, THP-1 cells co-transfected with LITAF and STAT6(B): 2.1 fold
cytokine antibody array, IFN-γ, THP-1 cells co-transfected with LITAF and STAT6(B): 6.2 fold
cytokine antibody array, IL-1α, THP-1 cells co-transfected with LITAF and STAT6(B): 3 fold
cytokine antibody array, MCP-2, THP-1 cells co-transfected with LITAF and STAT6(B): 8.5 fold
cytokine antibody array, RANTES, THP-1 cells co-transfected with LITAF and STAT6(B): 3.2 fold
cytokine antibody array, TNF-α, THP-1 cells co-transfected with LITAF and STAT6(B): 4 fold
